From patent CN113045663A (SHENZHEN INNOVA NANOBODI CO LTD, dated 2021)

Biological target: T1, 血清标本中的HE4抗原 (human, UniProt Q14508 31-124, limits assumed)
T1 construct: Serum HE4 detected in the sandwich assay; kept apart from the recombinant antigen; also called 血清中HE4; 质控血清HE4
T1 sequence (looked up): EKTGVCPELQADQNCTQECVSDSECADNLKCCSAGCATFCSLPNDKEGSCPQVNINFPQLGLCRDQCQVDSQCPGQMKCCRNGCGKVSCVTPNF
Assay: double-antibody sandwich chemiluminescent ELISA, capture antibody

- binding result: binds
B1: FC融合纳米抗体3C8 (Fc fusion)
chain: QLQESGGGLVQAGGSVRLSCAASGRTFRRYHMGWFRQTPGKEREFVAAISWSGGTTYYAESVKGRFTISRDNAKNTIYLQMNSLKPEDTAVYYCAPTYGNYWHPSGYWGQGTQVTVSS
notes: Capture antibody of the double-antibody sandwich assay; also called 3C8 (捕获一抗); 捕获抗体3C8; not shown: Fc part and any linker
